B1: Hairpin Ribozyme (parent)
chain: GUCCUCUUUCACGUGCGCGUGAAAGAGAGAAGUGAACCAGAGAAACACACGUUGUGGUAUAUUACCUGGUA

Variants of: B1
Experiment: self-cleavage, relative activity (ratio to wild type); higher = more cleavage; co-transcriptional

First: A31C U53G
Second: A31C U55C
The self-cleavage of the first is lower: 0.176 for the first, 0.208 for the second.

First: A31C U60A
Second: A31C U62G
The self-cleavage of the first is lower: 0.157 for the first, 0.223 for the second.

Compared with A31C U67A, A31C U67C is lower in self-cleavage: 0.2 for the first, 0.0604 for the second.

First: A31C U70A
Second: A31G
The self-cleavage of the first is lower: 0.131 for the first, 0.729 for the second.

Going from A31G A36G to A31G A39G, the self-cleavage falls from 0.57 to 0.192.

First: A31G A41G
Second: A31G A41U
The self-cleavage of the first is lower: 0.712 for the first, 1.37 for the second.

Going from A31G A43C to A31G A43G, the self-cleavage rises from 0.0574 to 0.207.

Compared with A31G A44C, A31G A47C is higher in self-cleavage: 0.188 for the first, 0.2 for the second.

First: A31G A47G
Second: A31G A47U
The self-cleavage of the first is higher: 0.117 for the first, 0.0555 for the second.

Compared with A31G A49C, A31G A49G is higher in self-cleavage: 0.162 for the first, 0.241 for the second.

Compared with A31G A59G, A31G A59U is lower in self-cleavage: 0.205 for the first, 0.184 for the second.

Going from A31G A64U to A31G A71G, the self-cleavage rises from 0.215 to 0.651.

Compared with A31G C37U, A31G C46A is lower in self-cleavage: 0.349 for the first, 0.155 for the second.

First: A31G C46G
Second: A31G C46U
The self-cleavage of the first is lower: 0.0961 for the first, 0.142 for the second.

Going from A31G C50A to A31G C66U, the self-cleavage rises from 0.146 to 0.294.

A31G G42A and A31G G42U are the same in self-cleavage: 0.19 for the first, 0.19 for the second.

First: A31G G51C
Second: A31G G54A
The self-cleavage of the first is higher: 0.495 for the first, 0.378 for the second.

First: A31G G54U
Second: A31G G57A
The self-cleavage of the first is higher: 0.223 for the first, 0.0901 for the second.

Going from A31G G57C to A31G G68U, the self-cleavage falls from 0.121 to 0.113.

Going from A31G G69C to A31G U33G, the self-cleavage falls from 0.199 to 0.

First: A31G U53A
Second: A31G U53C
The self-cleavage of the first is lower: 0.673 for the first, 0.846 for the second.

Going from A31G U55G to A31G U62C, the self-cleavage rises from 0.0654 to 0.0965.

Compared with A31G U63A, A31G U63C is lower in self-cleavage: 0.144 for the first, 0.105 for the second.

Compared with A31G U67G, A31U is lower in self-cleavage: 0.337 for the first, 0.129 for the second.

Going from A31U A35G to A31U A41U, the self-cleavage falls from 0.244 to 0.

Compared with A31U A43G, A31U A44C is lower in self-cleavage: 0.134 for the first, 0.101 for the second.

Going from A31U A44U to A31U A45C, the self-cleavage falls from 0.286 to 0.191.

Compared with A31U A47U, A31U A49U is lower in self-cleavage: 0.141 for the first, 0.137 for the second.

Compared with A31U A59G, A31U A61C is higher in self-cleavage: 0.0459 for the first, 0.111 for the second.

First: A31U A61U
Second: A31U A64U
The self-cleavage of the first is higher: 0.138 for the first, 0.134 for the second.

First: A31U A71C
Second: A31U A71G
The self-cleavage of the first is higher: 0.227 for the first, 0.226 for the second.

First: A31U A71U
Second: A31U C37U
The self-cleavage of the first is lower: 0.172 for the first, 0.187 for the second.

Going from A31U C38A to A31U C46A, the self-cleavage rises from 0.0669 to 0.236.

Going from A31U C46U to A31U C50A, the self-cleavage falls from 0.205 to 0.113.

Going from A31U C50G to A31U C50U, the self-cleavage rises from 0.152 to 0.24.

Going from A31U C65A to A31U C66G, the self-cleavage falls from 0.127 to 0.0934.

Compared with A31U G32U, A31U G34C is lower in self-cleavage: 0.125 for the first, 0 for the second.

Compared with A31U G42U, A31U G51A is lower in self-cleavage: 0.0854 for the first, 0 for the second.

Compared with A31U G54A, A31U G54U is lower in self-cleavage: 0.151 for the first, 0.0633 for the second.

Compared with A31U G56C, A31U G68U is higher in self-cleavage: 0.137 for the first, 0.206 for the second.

First: A31U G69U
Second: A31U U33A
The self-cleavage of the first is higher: 0.105 for the first, 0.0513 for the second.

Going from A31U U55A to A31U U58A, the self-cleavage falls from 0.0885 to 0.026.

First: A31U U60G
Second: A31U U67C
The self-cleavage of the first is higher: 0.115 for the first, 0.0741 for the second.

Going from G32A to G32A A35G, the self-cleavage falls from 0.153 to 0.142.

Compared with G32A A35U, G32A A45G is lower in self-cleavage: 0.153 for the first, 0.117 for the second.

Going from G32A A47G to G32A A47U, the self-cleavage falls from 0.133 to 0.125.

Compared with G32A A49G, G32A A61C is lower in self-cleavage: 0.366 for the first, 0.0657 for the second.

Going from G32A A61G to G32A A64U, the self-cleavage rises from 0.153 to 0.204.

Compared with G32A A71G, G32A C37G is lower in self-cleavage: 0.183 for the first, 0.0907 for the second.

First: G32A C38U
Second: G32A C48U
The self-cleavage of the first is lower: 0.0584 for the first, 0.154 for the second.

Compared with G32A C50U, G32A C65U is higher in self-cleavage: 0.101 for the first, 0.174 for the second.

First: G32A C66A
Second: G32A C66G
The self-cleavage of the first is higher: 0.147 for the first, 0.144 for the second.

First: G32A G34U
Second: G32A G40A
The self-cleavage of the first is higher: 0.798 for the first, 0.136 for the second.

Compared with G32A G40U, G32A G42U is higher in self-cleavage: 0.0775 for the first, 0.186 for the second.

First: G32A G51A
Second: G32A G54C
The self-cleavage of the first is higher: 0.156 for the first, 0.117 for the second.

First: G32A G56A
Second: G32A G56U
The self-cleavage of the first is lower: 0.179 for the first, 0.221 for the second.

Compared with G32A G57U, G32A G68A is higher in self-cleavage: 0.118 for the first, 0.193 for the second.

First: G32A G68C
Second: G32A G68U
The self-cleavage of the first is higher: 0.1 for the first, 0.0821 for the second.

First: G32A G69A
Second: G32A U33A
The self-cleavage of the first is lower: 0.0516 for the first, 0.139 for the second.

Going from G32A U52A to G32A U52G, the self-cleavage falls from 0.24 to 0.141.

First: G32A U55C
Second: G32A U55G
The self-cleavage of the first is higher: 0.161 for the first, 0.15 for the second.

First: G32A U60C
Second: G32A U60G
The self-cleavage of the first is higher: 0.256 for the first, 0.197 for the second.

First: G32A U62G
Second: G32A U63G
The self-cleavage of the first is lower: 0.0972 for the first, 0.126 for the second.

Going from G32A U67A to G32A U67C, the self-cleavage rises from 0.114 to 0.131.

Compared with G32A U70G, G32C is lower in self-cleavage: 0.165 for the first, 0.127 for the second.

Going from G32C A35U to G32C A36C, the self-cleavage rises from 0.132 to 0.159.

First: G32C A39G
Second: G32C A41G
The self-cleavage of the first is lower: 0.111 for the first, 0.128 for the second.

Going from G32C A44C to G32C A44U, the self-cleavage rises from 0.108 to 0.22.

First: G32C A47C
Second: G32C A49G
The self-cleavage of the first is lower: 0.161 for the first, 0.189 for the second.

Going from G32C A49U to G32C A59G, the self-cleavage rises from 0.0382 to 0.15.

Compared with G32C A59U, G32C A61C is higher in self-cleavage: 0.103 for the first, 0.222 for the second.

First: G32C C37A
Second: G32C C38A
The self-cleavage of the first is higher: 0.125 for the first, 0.061 for the second.

Compared with G32C C46A, G32C C65A is lower in self-cleavage: 0.109 for the first, 0.0926 for the second.

Compared with G32C C66U, G32C G34A is higher in self-cleavage: 0.04 for the first, 0.132 for the second.

Going from G32C G40C to G32C G42A, the self-cleavage rises from 0.109 to 0.156.

Going from G32C G42C to G32C G42U, the self-cleavage rises from 0.137 to 0.213.

Compared with G32C G51U, G32C G54C is higher in self-cleavage: 0.154 for the first, 0.16 for the second.

Going from G32C G56U to G32C G68A, the self-cleavage falls from 0.156 to 0.097.

First: G32C G69U
Second: G32C U33A
The self-cleavage of the first is higher: 0.203 for the first, 0.168 for the second.

Going from G32C U52A to G32C U58G, the self-cleavage falls from 0.0962 to 0.0601.

Compared with G32C U60A, G32C U60G is lower in self-cleavage: 0.203 for the first, 0.112 for the second.

First: G32C U67A
Second: G32C U67G
The self-cleavage of the first is lower: 0.134 for the first, 0.148 for the second.

Going from G32C U70G to G32U, the self-cleavage rises from 0.0915 to 0.13.

Variant G32U A35C has a self-cleavage of 0.107.

From the RNAGym collection of RNA variant scans (doi:10.7554/elife.80360)
